Laboratory results: patent US20040241222A1, “Lipid-polymer-conjugates compositions” (priority 2001, published 2004)

Key:
[1] = Particle size and polydispersity of liposomes by dynamic light scattering; type: physicochemical; conditions: prednisolone phosphate-containing DPPC/cholesterol liposomes, light scattering (Malvern Zeta-sizer)
Method: The lipid loss during preparation of the liposomes was 25%, determined by comparing the final radioactivity of the preparation with the activity before the extrusion procedure. The suspension of liposomes was stored in a nitrogen atmosphere at 4° C.
Liposomes were prepared using the film method, as described in example 23. Instead of egg phosphatidylcholine dipalmitoyl phosphatidylcholine was used. 5 mM HEPES buffer was added to the dry lipid film and shaken during 5 minutes in the presence of glass beads in order to enable complete hydration of the lipid film. The liposomes were sized by extrusion 12 times through 2 stacked PC membranes having pore sizes of […]. The resulting liposome dispersions were dialysed (MWCO 10,000) and average particle sizes were determined using dynamic light scattering technique. See table 1 for the properties of the liposomal preparations.

[2] = Encapsulation efficiency of prednisolone phosphate in liposomes (HPLC); type: physicochemical; conditions: prednisolone phosphate-containing DPPC/cholesterol liposomes
[3] = Kinetics of 3H-labelled liposomes containing lipid-polymer-conjugates after a single intravenous injection to the rat (blood circulation time); type: in vivo; conditions: intravenous administration to rats, compared with corresponding PEG-grafted liposomes
Method: 100 μl was transferred to a scintillation vial (20 ml).
100 μl of Solvable was added. This was incubated for at least 1 hour.
100 μl of 1 mM EDTA and 200 μl H2O2 30% were added. This mixture was incubated for 24 hours at room temperature and overnight at 50° C. thereafter.
Ultima Gold (10 ml) was added as the scintillation fluid.
Radioactivity was measured by LSC.
The increase of blood circulation time was assessed, wherein: […]

[4] = Storage stability of liposomal preparations (percentage encapsulated prednisolone phosphate versus time); type: physicochemical; conditions: prednisolone phosphate-containing liposome suspensions, nitrogen atmosphere, 4° C. (FIG. 3)
From the text: FIG. 3 is a graphical representation of the percentage encapsulated prednisolone phosphate in PEG-DSPE and PHEA-DODASuc, respectively, containing liposomal preparations versus time (example 26).

Substance	Mean particle size [1]	Encapsulation efficiency of the prednisolone phosphate [2]	Blood circulation time of the liposomes [3]	Storage stability compared with PEG-DSPE reference liposomes [4]
PEG-distearoylphosphatidylethanol-amine [PEG-DSPE]	~90 nm	2.6%		
PHEG-Diaminobutane DODASuc [Ex. 8.1]			Results similar to those obtained with the corresponding PEG-grafted liposomes	
Poly(2-hydroxyethyl)-L-asparagine DODASuc [Ex. 14]			Results similar to those obtained with the corresponding PEG-grafted liposomes	performed slightly better
Poly(D,L-methionine Sulfoxide) DODASuc [Ex. 18]			Results similar to those obtained with the corresponding PEG-grafted liposomes	
